Experimental data taken from patent US20130096281A1.

Target: [Ag] (UniProt P04626)
Test: yeast display titration (flow cytometry); Lip2prepro leader, Sag1p fusion

Kd: 2.51 nM
Substance: preproA1-Herceptin scFv
